Test in all cases: EMSA
In one series the target is T1, DtxR (Corynebacterium diphtheriae, UniProt P0DJL7 P0DJL7:1-226).
T1 sequence: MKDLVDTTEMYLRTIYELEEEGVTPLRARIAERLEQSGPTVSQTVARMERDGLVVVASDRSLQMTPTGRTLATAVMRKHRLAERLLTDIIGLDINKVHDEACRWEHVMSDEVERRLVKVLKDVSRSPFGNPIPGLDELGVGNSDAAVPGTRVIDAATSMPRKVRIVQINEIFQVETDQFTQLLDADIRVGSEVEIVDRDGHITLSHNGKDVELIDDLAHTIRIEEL
To be noted: chain copies: 4.

Another series addresses T2, SirR (UniProt Q5HRA0 Q5HRA0:1-214).
T2 sequence: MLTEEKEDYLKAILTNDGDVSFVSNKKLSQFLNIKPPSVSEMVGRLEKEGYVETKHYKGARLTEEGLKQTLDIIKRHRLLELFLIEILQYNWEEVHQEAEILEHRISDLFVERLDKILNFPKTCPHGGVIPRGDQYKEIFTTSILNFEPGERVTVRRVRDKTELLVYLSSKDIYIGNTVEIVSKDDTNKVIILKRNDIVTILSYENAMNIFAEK

A further series concerns the target EfaR (Enterococcus faecalis, UniProt Q93CH5 Q93CH5:1-222). The following applies: tags: untagged (pQN vector); label: 32P.

B1: tacPtoxO hybrid promoter/operator (dsDNA)
DNA 1: CCCTGTTGACAATTAATCACCGGTACCTATAATTAGGATAGCTTTACCTAATTATTTTACACCC
DNA 2: GGGTGTAAAATAATTAGGTAAAGCTATCCTAATTATAGGTACCGGTGATTAATTGTCAACAGGG
With B1, the binding result in the series with DtxR is given as “binds”.

B2: tacP (dsDNA)
DNA 1: CCCTGTTGACAATTAATCATCGGCTCGTATAATGTGTGGAATTGTGAGCGGATAACAATTTCA
DNA 2: TGAAATTGTTATCCGCTCACAATTCCACACATTATACGAGCCGATGATTAATTGTCAACAGGG
For the molecule B2, the binding result with DtxR is “no binding”.

B3: sitABC box (dsDNA)
DNA 1: AACTTGACATGTTAAAACTTTAGAGTATATTATAAAATAAATTAGGTTAACCTAAACTTTTTATTAGGAGG
DNA 2: CCTCCTAATAAAAAGTTTAGGTTAACCTAATTTATTTTATAATATACTCTAAAGTTTTAACATGTCAAGTT
B3: the binding result with SirR is recorded as “binds”.

B4: efaABC promoter/operator (efa box) (dsDNA)
DNA 1: TTTTCTTAAACTATCCCTTATACTGATTTTAAGGCAAACCTAAAAA
DNA 2: TTTTTAGGTTTGCCTTAAAATCAGTATAAGGGATAGTTTAAGAAAA
B4: the binding result with EfaR is on record as “binds”.

For the origin of these results see patent publication US20060167238, “Gene expression using metal ion dependent repressor/operator tandems” (ADVANCED MICROBIAL SOLUTIONS CORPORATION, published 2006).
